Reference: article PMC11255866
Where two headings read alike, the source gives them in different places.

What was measured:
Assay in all cases: fluorescence polarisation
[1] = target: U1‐70K BAD1 255–278 (human) (UniProt P08621)
[2] = target: SRSF1 RRM1 (residues 14–90), Alexa Fluor 488 labelled (human) (UniProt Q07955)
[3] = target: SRSF1 RRM1 (residues 14–90), Alexa Fluor 488 labelled (human) (UniProt Q07955); remark: listed apart in the source
[4] = target: Hyper‐phosphorylated SRSF1 (phosphorylated by Clk1), Alexa Fluor 488 labelled at T248C (human) (UniProt Q07955)
Hyper‐phosphorylated SRSF1 (phosphorylated by Clk1), Alexa Fluor 488 labelled at T248C (human), sequence (Q07955 whole entry T248C): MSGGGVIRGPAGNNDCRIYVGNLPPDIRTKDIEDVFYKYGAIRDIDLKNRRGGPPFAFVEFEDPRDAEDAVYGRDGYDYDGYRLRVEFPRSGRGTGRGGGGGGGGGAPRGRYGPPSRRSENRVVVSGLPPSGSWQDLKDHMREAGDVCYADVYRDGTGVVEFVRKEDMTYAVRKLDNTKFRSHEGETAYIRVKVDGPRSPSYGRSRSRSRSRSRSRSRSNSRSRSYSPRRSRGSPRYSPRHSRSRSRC

U1‐70K RRM (residues 64–202), sequence (P08621 64-202): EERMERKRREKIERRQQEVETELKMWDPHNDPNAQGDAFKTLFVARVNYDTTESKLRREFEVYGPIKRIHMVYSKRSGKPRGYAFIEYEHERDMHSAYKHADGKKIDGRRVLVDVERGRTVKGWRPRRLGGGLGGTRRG
Hyper phosphorylated SRSF1 RS (residues 199–248), unlabelled, sequence (Q07955 199-248): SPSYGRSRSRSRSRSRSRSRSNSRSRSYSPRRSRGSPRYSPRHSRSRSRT
U1‐70K BAD1 (residues 229–306), sequence (P08621 229-306): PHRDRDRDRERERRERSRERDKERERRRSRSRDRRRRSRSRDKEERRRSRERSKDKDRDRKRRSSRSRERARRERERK
U1‐70K RRM 92–202, sequence (P08621 92-202): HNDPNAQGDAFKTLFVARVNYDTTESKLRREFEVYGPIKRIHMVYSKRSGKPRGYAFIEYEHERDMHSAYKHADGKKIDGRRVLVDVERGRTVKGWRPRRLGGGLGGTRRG

## Hyper phosphorylated SRSF1 RS (residues 199–248), unlabelled (from UniProt Q07955 199-248) (domain or fragment)
[1]
  Kd: 2 µM

## U1‐70K RRM 92–202 (from UniProt P08621 92-202) (domain or fragment)
[2]
  Kd: 7 µM

## U1‐70K RRM (residues 64–202) (from UniProt P08621 64-202) (domain or fragment)
[2]
  Kd: 6 µM
[3]
  Kd: 3 µM

## U1‐70K BAD1 (residues 229–306) (from UniProt P08621 229-306) (domain or fragment)
[3]
  Kd: 0.24 µM

## U1‐70K ΔBAD2 (domain or fragment)
[4]
  Kd: 0.65 µM
